Assay results taken from doi:10.1101/2021.11.08.467742.

Target: Vibrio maritimus FtsA residues 1-396 (Vibrio maritimus)
Test: SPR

Q: For “Vibrio maritimus FtsN cytoplasmic peptide, residues 1-29”, which fold weaker than the EcFtsA^1-405-EcFtsN^1-32 interaction (SPR) is on record?
A: 3 fold
